4 molecules from patent US20080096811A1, “[…] VPAC2 RECEPTOR PEPTIDE AGONISTS” (Eli Lilly and Company, published 2008) can be followed below.

The target in assay [1] is T1, rat VPAC1 receptor (rat, UniProt P30083).
T1 sequence: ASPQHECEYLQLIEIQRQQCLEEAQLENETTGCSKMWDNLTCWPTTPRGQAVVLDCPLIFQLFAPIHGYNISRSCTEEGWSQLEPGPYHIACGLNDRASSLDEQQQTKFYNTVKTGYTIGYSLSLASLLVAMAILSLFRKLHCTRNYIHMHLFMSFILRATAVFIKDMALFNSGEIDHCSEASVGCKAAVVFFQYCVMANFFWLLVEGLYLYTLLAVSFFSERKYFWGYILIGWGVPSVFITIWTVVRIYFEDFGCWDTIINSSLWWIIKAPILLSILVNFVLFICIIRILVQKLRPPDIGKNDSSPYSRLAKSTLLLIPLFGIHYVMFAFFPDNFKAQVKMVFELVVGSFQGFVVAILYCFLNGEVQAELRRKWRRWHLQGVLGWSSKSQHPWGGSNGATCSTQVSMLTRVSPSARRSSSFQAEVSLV
Put plainly: cell-based or functional assay.

Assay [2] has as its target T2, human VPAC2 receptor (human) (UniProt P41587).
T2 sequence: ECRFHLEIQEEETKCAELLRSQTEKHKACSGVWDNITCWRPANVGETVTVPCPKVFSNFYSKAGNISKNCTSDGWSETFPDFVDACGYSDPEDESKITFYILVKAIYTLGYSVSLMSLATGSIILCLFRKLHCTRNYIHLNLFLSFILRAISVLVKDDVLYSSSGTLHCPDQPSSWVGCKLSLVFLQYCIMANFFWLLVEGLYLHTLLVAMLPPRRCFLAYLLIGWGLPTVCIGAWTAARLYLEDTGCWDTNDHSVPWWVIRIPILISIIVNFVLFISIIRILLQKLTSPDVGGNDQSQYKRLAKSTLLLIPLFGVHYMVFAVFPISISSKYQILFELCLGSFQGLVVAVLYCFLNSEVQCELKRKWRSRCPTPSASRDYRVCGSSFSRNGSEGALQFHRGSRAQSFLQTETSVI

Assay [3] addresses T3, rat VPAC2 receptor (rat, UniProt P35000).
T3 sequence: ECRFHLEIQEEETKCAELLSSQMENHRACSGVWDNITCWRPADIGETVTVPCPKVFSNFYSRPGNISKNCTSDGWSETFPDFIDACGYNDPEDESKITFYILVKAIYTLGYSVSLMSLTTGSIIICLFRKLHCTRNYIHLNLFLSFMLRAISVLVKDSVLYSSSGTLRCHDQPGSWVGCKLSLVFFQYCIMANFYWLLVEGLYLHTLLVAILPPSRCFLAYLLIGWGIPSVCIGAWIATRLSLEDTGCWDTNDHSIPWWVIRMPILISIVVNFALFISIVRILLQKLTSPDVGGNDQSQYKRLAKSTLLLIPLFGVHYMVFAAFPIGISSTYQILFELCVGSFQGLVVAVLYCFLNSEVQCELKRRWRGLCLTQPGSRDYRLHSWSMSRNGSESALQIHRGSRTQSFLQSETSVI
The experiment in a line: cell-based or functional assay.

*1 amine or outer side, *2 acyl side, *3 side chain or, on linkers, in order; H or OH if unused. Where no end group is shown, it is not given here. Side-chain parts run from the residue outwards. The star is where a group is joined. γGlu = O=C(O)[C@H](CCC(=O)[*:2])N[*:1]; Palmitoyl = CCCCCCCCCCCCCCCC(=O)*; Hexanoyl = CCCCCC(=O)*

B1: P118 (peptide)
peptide: Hexanoyl-HSDAVFTDNYTRLRKQVAAKKYLQSIKNSRTSPPPK(Trp)-NH2
SMILES: CCCCCC(=O)N[C@@H](Cc1c[nH]cn1)C(=O)N[C@@H](CO)C(=O)N[C@@H](CC(=O)O)C(=O)N[C@@H](C)C(=O)N[C@H](C(=O)N[C@@H](Cc1ccccc1)C(=O)N[C@H](C(=O)N[C@@H](CC(=O)O)C(=O)N[C@@H](CC(N)=O)C(=O)N[C@@H](Cc1ccc(O)cc1)C(=O)N[C@H](C(=O)N[C@@H](CCCNC(=N)N)C(=O)N[C@@H](CC(C)C)C(=O)N[C@@H](CCCNC(=N)N)C(=O)N[C@@H](CCCCN)C(=O)N[C@@H](CCC(N)=O)C(=O)N[C@H](C(=O)N[C@@H](C)C(=O)N[C@@H](C)C(=O)N[C@@H](CCCCN)C(=O)N[C@@H](CCCCN)C(=O)N[C@@H](Cc1ccc(O)cc1)C(=O)N[C@@H](CC(C)C)C(=O)N[C@@H](CCC(N)=O)C(=O)N[C@@H](CO)C(=O)N[C@H](C(=O)N[C@@H](CCCCN)C(=O)N[C@@H](CC(N)=O)C(=O)N[C@@H](CO)C(=O)N[C@@H](CCCNC(=N)N)C(=O)N[C@H](C(=O)N[C@@H](CO)C(=O)N1CCC[C@H]1C(=O)N1CCC[C@H]1C(=O)N1CCC[C@H]1C(=O)N[C@@H](CCCCNC(=O)[C@@H](N)Cc1c[nH]c2ccccc12)C(N)=O)[C@@H](C)O)[C@@H](C)CC)C(C)C)[C@@H](C)O)[C@@H](C)O)C(C)C
For B1, the “EC50 for cAMP generation, DiscoveRx” value in assay [1] amounted to 0.47 nM.

As to HSDAVFTDNYTRLRKAAAAKKYLQSIKNSRTSPPP-NH2 [P97], the EC50 (nM) for cAMP generation, Alpha Screen in assay [2] came to 0.64 nM. In addition, the “EC50 for cAMP generation, DiscoveRx” value in assay [1] was 0.3 nM.

B2: P309 (peptide)
peptide: HSDAVFTDNYTRLRXQVAAXKYLQSIKNSRTSPPP
modifications: N-terminal hexanoyl (C6); Aib (amino isobutyric acid) at positions 15 and 20; C-terminal amide (-NH2)
On to B2, for which the EC50 (nM) for cAMP generation, Alpha Screen in assay [2] is 0.16 nM. The “EC50 for cAMP generation, DiscoveRx” value in assay [3] was 0.05 nM.

B3: P81 (peptide)
peptide: Hexanoyl-HSDAVFTDNYTRLRKQVAAKKYLQSIKNSRTSPPPK([γGlu-Palmitoyl])-NH2
SMILES: CCCCCCCCCCCCCCCC(=O)N[C@@H](CCC(=O)NCCCC[C@H](NC(=O)[C@@H]1CCCN1C(=O)[C@@H]1CCCN1C(=O)[C@@H]1CCCN1C(=O)[C@H](CO)NC(=O)[C@@H](NC(=O)[C@H](CCCNC(=N)N)NC(=O)[C@H](CO)NC(=O)[C@H](CC(N)=O)NC(=O)[C@H](CCCCN)NC(=O)[C@@H](NC(=O)[C@H](CO)NC(=O)[C@H](CCC(N)=O)NC(=O)[C@H](CC(C)C)NC(=O)[C@H](Cc1ccc(O)cc1)NC(=O)[C@H](CCCCN)NC(=O)[C@H](CCCCN)NC(=O)[C@H](C)NC(=O)[C@H](C)NC(=O)[C@@H](NC(=O)[C@H](CCC(N)=O)NC(=O)[C@H](CCCCN)NC(=O)[C@H](CCCNC(=N)N)NC(=O)[C@H](CC(C)C)NC(=O)[C@H](CCCNC(=N)N)NC(=O)[C@@H](NC(=O)[C@H](Cc1ccc(O)cc1)NC(=O)[C@H](CC(N)=O)NC(=O)[C@H](CC(=O)O)NC(=O)[C@@H](NC(=O)[C@H](Cc1ccccc1)NC(=O)[C@@H](NC(=O)[C@H](C)NC(=O)[C@H](CC(=O)O)NC(=O)[C@H](CO)NC(=O)[C@H](Cc1c[nH]cn1)NC(=O)CCCCC)C(C)C)[C@@H](C)O)[C@@H](C)O)C(C)C)[C@@H](C)CC)[C@@H](C)O)C(N)=O)C(=O)O
In the case of B3, the EC50 (nM) for cAMP generation, Alpha Screen in assay [2] amounted to 0.01 nM. For the same molecule, the EC50 (nM) for cAMP generation, DiscoveRx in assay [2] was 0.18 nM. Moreover, the results for the “EC50 for cAMP generation, DiscoveRx” value in assay [3] and in assay [1] were 0.05 nM and 0.8 nM, respectively.
